In patent US20170066836A1 (NATIONAL UNIVERSITY CORPORATION KOCHI UNIVERSITY, published 2017):

T1: human Glypican-1 forcibly expressed on CT01 chicken T-lymphoblast-like cells (CT01-GPC-1#42) (human, UniProt P35052 24-530)
T1 sequence: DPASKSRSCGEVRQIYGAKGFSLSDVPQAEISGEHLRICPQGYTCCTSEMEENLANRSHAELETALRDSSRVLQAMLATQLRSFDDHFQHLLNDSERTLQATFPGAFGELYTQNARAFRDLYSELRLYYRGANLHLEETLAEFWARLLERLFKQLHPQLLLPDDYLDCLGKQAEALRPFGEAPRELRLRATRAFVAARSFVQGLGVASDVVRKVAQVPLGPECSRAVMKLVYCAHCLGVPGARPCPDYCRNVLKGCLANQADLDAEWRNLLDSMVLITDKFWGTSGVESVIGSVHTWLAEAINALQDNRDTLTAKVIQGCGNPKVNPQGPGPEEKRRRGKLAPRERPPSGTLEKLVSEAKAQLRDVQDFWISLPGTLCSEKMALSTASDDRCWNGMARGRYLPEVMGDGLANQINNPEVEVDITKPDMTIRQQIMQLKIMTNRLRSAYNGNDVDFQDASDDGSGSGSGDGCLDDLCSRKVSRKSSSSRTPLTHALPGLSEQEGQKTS

T2: recombinant Glypican-1 (R&D systems 4519-GP-050) (Homo sapiens (Human), UniProt P35052 24-530)
T2 construct: Bought protein
T2 sequence: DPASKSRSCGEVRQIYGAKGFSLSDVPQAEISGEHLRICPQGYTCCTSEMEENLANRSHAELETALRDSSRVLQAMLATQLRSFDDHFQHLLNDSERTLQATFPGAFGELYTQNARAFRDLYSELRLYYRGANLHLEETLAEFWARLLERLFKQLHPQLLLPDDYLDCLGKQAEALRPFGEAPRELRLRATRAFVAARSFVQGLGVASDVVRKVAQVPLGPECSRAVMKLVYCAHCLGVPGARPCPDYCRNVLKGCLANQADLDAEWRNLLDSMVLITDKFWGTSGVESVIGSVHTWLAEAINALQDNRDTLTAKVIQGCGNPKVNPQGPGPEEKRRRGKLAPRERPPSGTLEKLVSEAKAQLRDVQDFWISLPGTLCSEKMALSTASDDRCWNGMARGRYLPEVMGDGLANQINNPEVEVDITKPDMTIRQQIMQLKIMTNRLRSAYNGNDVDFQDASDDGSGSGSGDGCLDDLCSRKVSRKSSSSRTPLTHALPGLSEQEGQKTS

T3: mouse Glypican-1 expressed on 293 cells (mouse, UniProt Q9QZF2 24-529)
T3 construct: whole, on cells; also called mouse GPC-1; mouse GPC1
T3 sequence (looked up): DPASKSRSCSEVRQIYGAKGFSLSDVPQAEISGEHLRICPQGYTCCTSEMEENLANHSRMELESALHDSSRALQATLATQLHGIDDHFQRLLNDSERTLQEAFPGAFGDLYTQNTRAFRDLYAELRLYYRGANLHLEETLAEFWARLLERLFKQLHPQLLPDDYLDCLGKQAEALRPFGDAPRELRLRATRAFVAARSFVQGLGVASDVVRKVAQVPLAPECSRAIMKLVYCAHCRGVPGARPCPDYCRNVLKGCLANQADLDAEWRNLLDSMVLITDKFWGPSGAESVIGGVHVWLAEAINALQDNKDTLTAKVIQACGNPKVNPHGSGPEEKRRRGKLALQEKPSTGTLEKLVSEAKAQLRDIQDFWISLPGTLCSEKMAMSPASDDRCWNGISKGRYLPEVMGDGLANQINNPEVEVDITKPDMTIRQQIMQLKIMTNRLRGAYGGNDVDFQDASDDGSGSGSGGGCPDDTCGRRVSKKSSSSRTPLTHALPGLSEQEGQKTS

B1: anti-GPC-1 antibody 1-50 (antibody, V domains shown)
VH: AVTLDESGGGLQTPGGALSLVCKASGFTFNNNGMSWVRQAPGKGLEWVAGISGAGYSNYAPAVKGRATISRDNGQSTVRLQLNSLRAEDTGTYFCAKVASSCGNECYTSGFIDAWGHGTEVIVST
VL: ALTQPASVSANLGGTVKITCSGGSGSYGWYQQKSPGSAPVTVIFWDNERPSDIPSRFSGSKSGSTHTLTITGVQAEDEAVYFCGSRDRMYDGIFGAGTTLTV
notes: detection was with anti-mouse IgG
B2: anti-GPC-1 antibody 1-30 (antibody, V domains shown)
VH: AVTLDESGGGLQTPGGGLSLVCKASGFTLNSYDMLWVRQAPGKGLEFVAAISIASGSSYAPAVKGRATISRDNGQSTVRLQLNNLRAEDTGTYYCARGGTGYYYSDATGQIDAWGHGTEVIVST
VL: ALTQPSSVSANPGETVKITCSGGSSGYGYGWYQQKAPGSAPVTVIYSNNQRPSNIPSRFSGSTSGSTSTLTITGVQADDEAVYYCGSTDSSTYDGIFGAGTTLTV
notes: as for B1
B3: anti-GPC-1 antibody 1-4 (antibody, V domains shown)
VH: AVTLEESGGGLQTPGGGLSLVCKASGFDFRNNGMAWVRQAPGKGLEWVAGISGTAYAVYGAAVKGRATISRDNGQSTVRLQLNNLRAEDTATYYCAKTVGSCGIDCHTTGFIDGWGHGTEVIVST
VL: ALTQPSSVSANPGETVKITCSGGSYSYGWFQQKSPGSAPVTVIYWDDERPSGIPSRFSGSKSGSTGTLTITGVQAEDEAVYFCGSRDSSYVGIFGAGTTLTV
notes: as for B1
B4: anti-GPC-1 antibody 2-60 (antibody, V domains shown)
VH: AVTLDESGGGLQTPGGALSLVCKASGFTYSSYAMGWVRQAPGKGLEFVASISSDGSDTAYGSAVKGRATISRDNRQSTLRLQLNNLRAEDTGTYYCAKSYRCSWNCWDYAAKIDAWGHGTEVTVS
VL: VALTQPASVSANPGETVKITCSGSGSYTGSYYYGWYQQKSPGSAPVTVIYNNNKRPSDIPSRFSGSTSGSTATLTITGVQAEDEAVYFCGSYDRSSDSGIFGAGTTLTV
notes: detection was with anti-mouse IgG and the control was mouse IgG2a; also called #17; clone 2-60
B5: anti-GPC-1 antibody 2-70 (antibody, V domains shown)
VH: AVTLDESGGGLQTPGGALSLVCKASGLSTFSDRGMHWVRQAPGKGLEFVAAISSSGRFTLYGAAVKGRATISRDNGQSTVRLQLNDLRAEDTAIYYCARGTTTGWWADAGEIDAWGHGTEVIVST
VL: ALTQPAFMSANPGETVKITCSGGSYSAYGWFQQKSPGSAPVTLIYNDNIRPSDISSRFSGSKSGSTATLTITGVQADDEAVYFCGNEDRNNTATFGAGTTLTV
notes: detection was with anti-mouse IgG and the control was mouse IgG2a; also called #19; clone 2-70
B6: anti-GPC-1 antibody 1-12 (antibody, V domains shown)
VH: AVTLDESGGGLQTPGRALSLVCKASGFTFSRYAMYWVRQAPGKGLEFVAGIGNTGRYTGYGSAVKGRATISRDSGQSTVRLQLNNLRAEDTGNYYCAKSVSPYCCDAADIDAWGHGTEVIVST
VL: ALTQPASVSANPGETVKITCSGGSSGYAYGWYQQKSPGSAPVTLLYSNNNRPSDIPSRFSGSKSGSTATLTITGVQAEDEAVYFCGSVDSSSYAGIFGAGTTLTV
notes: it was captured and detected with anti-mouse IgG and the control was mouse IgG2a; also called #4; clone 1-12
B7: anti-GPC-1 antibody 1-57 (antibody, V domains shown)
VH: AVTLDESGGGLQTPGGGLSLVCKGSGFTLTDRGMHWVRQAPGKGLEWVAAISSSGRFTLYAPAVTGRATISRDNGQSTVRLQLNNLRAEDTGTYYCARGNAGGWWADGGEIDAWGHGTEVIVST
VL: ALTQPSSVSANPGETVKITCSGGSGSYGWFQQKSPGSAPVTVIYSNNKRPTDIPSRFSGSKSGSTNTLTITGVQADDEAVYFCGSADSSYIGIFGAGTTLTV
notes: detection was with anti-mouse IgG and the control was mouse IgG2a; also called #10; clone 1-57
B8: anti-GPC-1 antibody 1-10 (antibody, V domains shown)
VH: AVTLDESGGGLQTPGGGLSLVCKASGFTFSGYDMMWVRQAPGKGLEWVGQISSTGSIQKYGAAVKGRATISRDNGQSTMRLQLNDLRAEDTGTYFCAKSAYGYSSSGPEDIDAWGHGTEVIVST
VL: ALTQPASVSANLGGTVKITCSGGSSDAYGWYQQKSPDSAPVTVIYGNNNRPSDIPSRFSGSTSGSTNTLTITGVQADDEAVYFCGSYDGSTDSDGIFGAGTTLTV
notes: as for B1
B9: anti-GPC-1 antibody 2-63 (antibody, V domains shown)
VH: AVTLDESGGGLQTPGGTLSLVCKASGFDFSSVNMFWVRQAPGKGLEFVAGIDNDATFTLYGSAVKGRASISRDNGQSTVRLQLNNLRAEDTGTYYCAKTLCSTTWGCGAYSAGDIDAWGHGTEVTVST
VL: ALTQPSSVSANPGETVKITCSGGGSSGYGYYGWYQQKSPGSAPVTVIYNNNKRPTDIPSRFSGALSGSTATLTITGVQVEDEAVYYCGSRDNTYVGIFGAGTTLTV
notes: detection was with anti-mouse IgG and the control was mouse IgG2a; also called #18; clone 2-63
B10: anti-GPC-1 antibody 1-5 (antibody, V domains shown)
VH: AVTLDESGGGLQTPGGALSLVCKASGFKFRSYDMYWVRQAPGKGLEYVAGIINTGRETYYGAAVKGRATISRDNGRSTVRLQLNNLRAEDTGTYFCAKGAAWNYAGSIDAWGHGTEVIVST
VL: ALTQPASVSANPGETVKITCSGGSGSYGWYQQKSPGSAPVTVIYGDNKRPTDISSRFSGSTSGSTNTLTITGVQAEDEAVYFCGSRDNTYAGIFGAGTTLTV
notes: detection was with anti-mouse IgG and the control was mouse IgG2a; also called #2; clone 1-5
B11: anti-GPC-1 antibody 1-18 (antibody, V domains shown)
VH: AVTLDESGGGLQTPGGALSLVCKASGFTFSSYTMFWVRQAPGKGLEFVAGIDNTGIYTPYGSAVKGRATISRDNGQSTVRLQLNNLRAEDTGTYYCAKYADACTGPWCGSSAYTGSTIDAWGHGTEVTVST
VL: ALTQPSSVSANPGETVKLTCSGGGSYYGWYQQKSPGSAPVTVIYENTERPSNIPSRFSGSTSGSTSTLTIIGVQADDEAVYFCGGYDSSTDAGIFGAGTTLTV
notes: as for B1
B12: anti-GPC-1 antibody 1-28 (antibody, V domains shown)
VH: AVTLDESGGGLQTPGRALSLVCKASGFTFSSYTMFWVRQAPGKGLEFVAGIDNTGIYTPYGSAVKGRATISRDNGQSTVRLQLNNLRAEDTGTYYCAKYADACTGPWCGSSAYTASTIDAWGHGTEVIVST
VL: ALTQPASVSANLGGTVEITCSGGGNDYGWYQQKSPGSAPVTVIYDSINRPSNIPSRFSGSTSGSTATLTITGVQADDEAVYFCGSYDSSYVGIFGAGTTLTV
notes: detection was with anti-mouse IgG and the control was mouse IgG2a; also called #7; clone 1-28

Legend:
[1] = target: T1, human Glypican-1 forcibly expressed on …; assay: FACS: clone as primary antibody, FITC-labeled goat anti-mouse IgG as secondary; CT01 cells forcibly expressing human Glypican-1 (CT01-GPC-1#42), Glypican-1-negative CT01 cells as negative cells
Procedure: In carrying out FACS analysis using an antibody, a chicken T-lymphoblast-like cell strain (CT01 cell) was used as a Glypican-1 negative cell and a CT01 cell (CT01-GPC-1#42) forcibly expressing human Glypican-1 was used as a Glypican-1 positive cell. Various clones of the developed antibodies were used as primary antibodies, a FITC-labeled Goat anti-Mouse IgG (H+L chain specific) (Southern Biotech) was used as a secondary antibody, measurement was carried out using FACS Cantoll (BD), and the measurement data was analyzed using Flow Jo (Tree Star). As a result, twenty types of clones were successfully developed as antibodies that can stain Glypican-1 with FACS.

[2] = target: T4, human Glypican-3 expressed on 293 cells (pFLAG-CMV3 hGPC3) (human, UniProt P51654 25-554); assay: FACS on 293 cells transfected with pFLAG-CMV3 hGPC3
T4 construct: whole, on cells; FLAG-tagged through the vector; also called human GPC-3
Procedure: Subsequently, a characteristic of various anti-Glypican-1 antibodies that reacted with Glypican-1, but not with Glypican-3 was determined to prepare a chimeric protein expression vector having an amino acid sequence of the 430th or more position of Glypican-1 substituted with that of Glypican-3 (FIG. 17). Various expression vectors were transfected into the 293 cell and the reactivity with various anti-Glypican-1 antibodies was analyzed by FACS. Consequently, since the reactivity in FACS is not recognized in three clones #17(2-60), #2(1-5), and #10(1-57), it is believed that the epitope region in these clones is present in the 430th to the 530th corresponding to an extracellular region of Glypican-1 (FIG. 18).

[3] = target: T2, recombinant Glypican-1 (R&D systems …); assay: Biacore 3000 (SPR): antibody captured on rabbit anti-mouse IgG on a CM5 chip, recombinant Glypican-1 added at various concentrations; BIAevaluation 4.1
Procedure: (§1) Affinity analysis of an anti-Glypican-1 antibody was measured using Biacore 3000. A rabbit anti-mouse IgG polyclonal antibody of the Mouse Antibody Capture Kit was solid-phased to a CM5 sensor tip, various anti-Glypican1 antibody clones were captured, recombinant Glypican-1 (R&D systems 4519-GP-050) was added at various concentrations as a ligand, and binding and dissociation were monitored. The obtained sensorgram was analyzed using BIAevaluation 4.1 software and a KD value was calculated (FIG. 12).

[4] = target: T2, recombinant Glypican-1 (R&D systems …); assay: SPR (Biacore 3000): antibody captured by rabbit anti-mouse IgG on a CM5 chip, recombinant Glypican-1 added at various concentrations
Procedure: as §1

[5] = target: T3, mouse Glypican-1 expressed on 293 cells; assay: FACS on 293 cells forcibly expressing mouse GPC1
Procedure: A mouse Glypican-1 expression vector or an empty vector was transfected to the 293 cell using lipofectamine 2000 and the reactivity with various clones of an anti-Glypican-1 antibody was analyzed by FACS.

T4 sequence (P51654 25-554 limits assumed): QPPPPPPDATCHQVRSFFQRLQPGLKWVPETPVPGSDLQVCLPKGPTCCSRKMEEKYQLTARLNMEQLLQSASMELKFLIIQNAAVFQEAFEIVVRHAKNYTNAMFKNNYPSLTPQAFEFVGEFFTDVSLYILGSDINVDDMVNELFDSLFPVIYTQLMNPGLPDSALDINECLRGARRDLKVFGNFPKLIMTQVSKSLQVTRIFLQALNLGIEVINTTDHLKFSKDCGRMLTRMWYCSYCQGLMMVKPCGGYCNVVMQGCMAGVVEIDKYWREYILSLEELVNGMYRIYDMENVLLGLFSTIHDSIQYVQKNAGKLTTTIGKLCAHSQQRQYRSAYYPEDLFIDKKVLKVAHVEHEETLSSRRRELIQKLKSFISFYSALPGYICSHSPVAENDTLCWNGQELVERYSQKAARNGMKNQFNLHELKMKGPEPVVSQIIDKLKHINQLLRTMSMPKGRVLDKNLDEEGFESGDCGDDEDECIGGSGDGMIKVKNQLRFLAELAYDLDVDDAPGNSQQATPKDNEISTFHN

Row | Binder | binding result [1] | binding result [2] | Kd [3] [nM] | koff [3] [s⁻¹] | kon [3] [M⁻¹ s⁻¹] | Kd [4] [nM] | binding result [5]
1 | B1 | binds |  |  |  |  |  | 
2 | B2 | binds |  |  |  |  |  | 
3 | B3 | binds |  |  |  |  |  | 
4 | B4 |  | no binding | 15.2 | 0.00105 | 69100 |  | 
5 | B5 |  | no binding |  |  |  |  | 
6 | B6 |  | no binding |  | 0.000488 | 187000 | 2.61 | binds
7 | B7 |  | no binding | 176 | 0.00213 | 12100 |  | binds
8 | B8 | binds |  |  |  |  |  | 
9 | B9 |  |  | 6.19 | 0.000848 | 137000 |  | 
10 | B10 |  | no binding | 20.9 | 0.000951 | 45500 |  | binds
11 | B11 | binds |  |  |  |  |  | 
12 | B12 |  | no binding |  |  |  |  | binds
